Experimental findings from patent publication US20260176378A1 (DYAX, published 2026) are described below.

Changes are numbered by the printed parent chain.

The assay concerns the target T1, human plasma kallikrein (human, UniProt P03952 20-390; P03952 391-638).
T1 construct: two disulfide-linked chains; NP_000883.2; also called pKal; hpKal
Nature of the assay: ELISA, biotinylated pKal signal over streptavidin background. (An ELISA detects its analyte on a solid surface through an enzyme-linked reagent.)

T1 sequence (P03952 20-390 limits assumed, chain 1 of 2): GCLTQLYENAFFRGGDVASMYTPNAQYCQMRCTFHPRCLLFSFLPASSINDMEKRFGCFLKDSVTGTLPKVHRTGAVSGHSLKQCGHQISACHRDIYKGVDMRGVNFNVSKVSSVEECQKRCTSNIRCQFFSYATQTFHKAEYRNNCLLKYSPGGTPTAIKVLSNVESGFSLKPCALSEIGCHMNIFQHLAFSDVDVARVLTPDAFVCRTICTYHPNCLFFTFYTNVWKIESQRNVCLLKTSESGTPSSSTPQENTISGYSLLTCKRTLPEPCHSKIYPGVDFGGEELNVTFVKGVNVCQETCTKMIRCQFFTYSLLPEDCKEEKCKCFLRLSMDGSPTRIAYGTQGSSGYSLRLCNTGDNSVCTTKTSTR
T1 sequence (P03952 391-638 limits assumed, chain 2 of 2): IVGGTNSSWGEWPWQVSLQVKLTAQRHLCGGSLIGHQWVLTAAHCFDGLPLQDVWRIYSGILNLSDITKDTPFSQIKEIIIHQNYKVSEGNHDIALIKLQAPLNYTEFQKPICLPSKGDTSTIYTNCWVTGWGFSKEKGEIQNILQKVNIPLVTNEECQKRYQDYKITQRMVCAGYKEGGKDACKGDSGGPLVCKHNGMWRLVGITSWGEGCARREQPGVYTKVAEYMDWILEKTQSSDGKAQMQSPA

B1: M12-B04 (Fab, V domains shown)
VH: EVQLLESGGGLVQPGGSLRLSCAASGFTFSLYSMYWVRQAPGKGLEWVSRIRPSGGGTVYADSVKGRFTISRDNSKNTLYLQMNSLRAEDTAVYYCARDPLYSSGDVWGQGTTVTVSS
VL: DIQMTQSPSSLSASVGDRVTITCRASQGIRNDLGWYQHKPGKAPKLLIYAASILQSGVPSRFSGTASGTDFTLTISSLQPEDFATYFCLQDYEYPLTFGGGTKLDIK
Turning to B1, the “ELISA (T/B)” value was 18.

B2: M27-G09 (Fab, V domains shown)
VH: EVQLLESGGGLVQPGGSLRLSCAASGFTFSEYDMAWVRQAPGKGLEWVSYIVSSGGFTSYADSVKGRFTISRDNSKNTLYLQMNSLRAEDTAVYYCTTWAGWIAAADYWGQGTLVTVSS
VL: DIQMTQSPSSVSASVGDRITITCRTRQSISNYLNWYQQKPGEPPKLLIFAASSLQSGVPSRFSGSGTGTEFTLTISSLQPEDLAIYYCQQSYDIPFTFGQGTKLEIK
Consider B2, for which the “ELISA (T/B)” value was 2.2.

B3: M27-F04 (Fab, V domains shown)
VH: EVQLLESGGGLVQPGGSLRLSCAASGFTFSWYPMTWVRQAPGKGLEWVSSIGPSGGQTIYADSVKGRFTISRDNSKNTLYLQMNSLRAEDTAVYYCTTEYGDYGGGFDPWGQGTLVTVSS
VL: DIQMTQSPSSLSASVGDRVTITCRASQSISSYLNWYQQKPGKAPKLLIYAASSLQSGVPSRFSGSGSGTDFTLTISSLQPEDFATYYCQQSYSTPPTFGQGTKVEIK
As for B3, the “ELISA (T/B)” value was 10.5.

B4: M28-E11 (Fab, V domains shown)
VH: EVQLLESGGGLVQPGGSLRLSCAASGFTFSLYDMTWVRQAPGKGLEWVSGISSSGGVTIYADSVKGRFTISRDNSKNTLYLQMNSLRAEDTAVYYCARTYYYDSSGYADAFDIWGQGTMVTVSS
VL: DIQMTQSPSSVSASVGDRVTINCRASQDISNWLAWYQQKPGKAPNLLIYAASSLQTGAPSRFSGSGSGTDFTLTISSLQPEDFGTYVCQQSYSLPWTFGLGTKVEVR
Regarding B4, the “ELISA (T/B)” value was found to be 29.3.

B5: M27-F11 (Fab, V domains shown)
VH: EVQLLESGGGLVQPGGSLRLSCAASGFTFSSYHMMWVRQAPGKGLEWVSSIYPSGGATMYADSVKGRFTISRDNSKNTLYLQMNSLRAEDTAMYYCARDGYHYGDYTYFQHWGQGTLVTVSS
VL: DIQMTQSPSFLSASVGDRVTITCRASQGISSYLAWYQQKPGKAPKLLIYAASSLQSGVPSRFSGSGSGTDFTLTISSLQPEDFATYYCQQSYNTLRTFGPGTKVDLK
On to B5, for which the “ELISA (T/B)” value amounted to 10.

B6: M28-C03 (Fab, V domains shown)
VH: EVQLLESGGGLVQPGGSLRLSCAASGFTFSYYQMGWVRQAPGKGLEWVSSIYPSGGMTDYADSVKGRFTISRDNSKNTLYLQMNSLRAEDTAVYYCTRGSPWGDDAFDIWGQGTMVTVSS
VL: DIQMTQSPSSLSASVGDRVTITCRASQSINFYLNWYQQKPGKAPKLLIYVASSLESGVPSRFSGSASGTEFTLTISSLQPEDFATYYCLQSYSAPYTFGQGTKVEIT
Take B6: the “ELISA (T/B)” value was determined as 2.2.

B7: M27-A10 (Fab, V domains shown)
VH: EVQLLESGGGLVQPGGSLRLSCAASGFTFSWYRMDWVRQAPGKGLEWVSSIWPSGGLTSYADSVKGRFTISRDNSKNTLYLQMNSLRAEDTAVYYCARGWAPGGDAFDIWGQGTMVTVSS
VL: DIQMTQSPSSLSASVGDRVTITCRASQSISAYLNWYQQKPGKAPQLLMYGVGSLQSGVPSRFSGSGSGTDFTLTISSLQPEDFATYFCQQGYTTPVTFGGGTKVEIK
Regarding B7, the “ELISA (T/B)” value stood at 3.2.

B8: M27-G04 (Fab, V domains shown)
VH: EVQLLESGGGLVQPGGSLRLSCAASGFTFSAYYMVWVRQAPGKGLEWVSYISPSGGQTQYADSVKGRFTISRDNSKNTLYLQMNSLRAEDTAVYYCAREAISSSSFDYWGQGTLVTVSS
VL: DIQMTQSPSSLSASVGDRVTITCRASQRISYYLTWYQQKPGKVPKLLIYAASSLESGVPSRFSGSGSGTDFTLTISNLQPEDFATYYCQQAFSTPFTFGGGTKVEIK
Take B8: the “ELISA (T/B)” value was 4.1.

B9: M12-C09 (Fab, V domains shown)
VH: EVQLLESGGGLVQPGGSLRLSCAASGFTFSSYAMVWVRQAPGKGLEWVSSIGSSGGFTLYADSVKGRFTISRDNSKNTLYLQMNSLRAEDTAVYYCASMNLGGGDAFDIWGQGTMVTVSS
VL: DIQMTQSPSSLSASVGDRVTITCRASQSIGIYLNWYHQKPGKAPNLLIYGASSLQSGVPSRFSGSGSGTDFTLTISSLQPGDFATYYCQHSYSTPFTFGGGTKVEIK
As for B9, the “ELISA (T/B)” value turned out to be 7.

B10: M12-D10 (Fab, V domains shown)
VH: EVQLLESGGGLVQPGGSLRLSCAASGFTFSNYPMDWVRQAPGKGLEWVSSISSSGGWTNYADSVKGRFTISRDNSKNTLYLQMNSLRAEDTAVYYCATDTSGSYLGFDYWGQGTLVTVSS
VL: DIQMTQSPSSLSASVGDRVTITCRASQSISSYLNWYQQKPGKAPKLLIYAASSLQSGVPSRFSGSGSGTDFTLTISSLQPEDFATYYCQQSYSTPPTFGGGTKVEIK
Consider B10, for which the “ELISA (T/B)” value is 9.9.

B11: M11-G12 (Fab, V domains shown)
VH: EVQLLESGGGLVQPGGSLRLSCAASGFTFSQYPMNWVRQAPGKGLEWVSSISSSGGFTTYADSVKGRFTISRDNSKNTLYLQMNSLRAEDTAVYYCAREEQQGGFDYWGQGTLVTVSS
VL: DIQMTQSPSSLSAFVGDRVSITCRASQTISVYVNWYQHKSGQAPKLLIYGASSLQSGVPSRFSGSGSGTDFTLTISSLQPEDFATYFCQQSYSIPFTFGGGTDVQIR
For the molecule B11, the “ELISA (T/B)” value amounted to 4.9.

B12: M12-A08 (Fab, V domains shown)
VH: EVQLLESGGGLVQPGGSLRLSCAASGFTFSWYYMGWVRQAPGKGLEWVSWIVSSGGLTLYADSVKGRFTISRDNSKNTLYLQMNSLRAEDTAMYYCARTTVTTGDAFDIWGQGTMVTVSS
VL: DIQMTQSPSSLSASVGDRVTITCRASQSISRYLNWYQQKPGKAPKLLIYAASTLETGVPSRFSGSGSGTDFTLTITTLQPEDFVIYYCQQSYSTPYTFGQGTKLEIK
B12: the “ELISA (T/B)” value worked out at 40.4.

B13: M27-G01 (Fab, V domains shown)
VH: EVQLLESGGGLVQPGGSLRLSCAASGFTFSLYRMFWVRQAPGKGLEWVSSIWSSGGPTMYADSVKGRFTISRDNSKNTLYLQMNSLRAEDTAVYYCAREYPSTYYFDYWGQGTLVTVSS
VL: B12 VL with R31T, A50G, T53S, E55Q, T56S, T76S, T77S, V84T, T94D, E105D
For B13, the “ELISA (T/B)” value came out at 31.4.

B14: M27-H10 (Fab, V domains shown)
VH: EVQLLESGGGLVQPGGSLRLSCAASGFTFSAYQMAWVRQAPGKGLEWVSVIYSSGGYTDYADSVKGRFTISRDNSKNTLYLQMNSLRAEDTAVYYCARHNWNDGAFDIWGQGTMVTVSS
VL: DIQMTQSPSSLSASVGDRVTITCRASQSISNYLNWYQQKPGKAPKFLIYAASSLQSGVPSRFSGSGSGTDFTLSISSLQPEDFATYYCQQSYSTPQTFGQGTKVEMK
Regarding B14, the “ELISA (T/B)” value was found to be 12.4.

B15: M28-E01 (Fab, V domains shown)
VH: EVQLLESGGGLVQPGGSLRLSCAASGFTFSSYPMGWVRQAPGKGLEWVSRISSSGGMTIYADSVKGRFTISRDNSKNTLYLQMNSLRAEDTAVYYCARDDWNVGMDVWGQGTTVTVSS
VL: B14 VL with N31S, F46L, R61K, F71Y, S74T, S91T, S93T, Q96W, M106I
Consider B15, for which the “ELISA (T/B)” value came to 41.

B16: M12-E06 (Fab, V domains shown)
VH: EVQLLESGGGLVQPGGSLRLSCAASGFTFSQYKMLWVRQAPGKGLEWVSGIGPSGGLTAYADSVKGRFTISRDNSKNTLYLQMNSLRAEDTAVYYCARAPWFGELGMDVWGQGTTVTVSS
VL: DIQMTQSPSSLSASVGDRVSITCRASQSISTYLNWYQHKPGKAPTLLIYGAFSLQSGVPSRFSGSGSGTDFALTISSLQPEDFATYYCQQSHSTPPTFGQGTRVEIK
For the molecule B16, the “ELISA (T/B)” value is 48.

B17: M28-D02 (Fab, V domains shown)
VH: EVQLLESGGGLVQPGGSLRLSCAASGFTFSWYPMQWVRQAPGKGLEWVSYIYPSGGGTDYADSVKGRFTISRDNSKNTLYLQMNSLRAEDTATYYCATSSGWLGDAFDIWGQGTMVTVSS
VL: DIQMTQSPSSLSASEGDMVTITCRTSRRIGTYLNWYQQKPGKAPKLLIYGASSLQSGVPSRFSGSGSGTDFTLTVSSLQPEDVGTYYCQQSFSSPWTFGPGTKVEIK
On to B17, for which the “ELISA (T/B)” value was determined as 3.7.

B18: M28-D12 (Fab, V domains shown)
VH: EVQLLESGGGLVQPGGSLRLSCAASGFTFSWYTMHWVRQAPGKGLEWVSVIYPSGGPTSYADSVKGRFTISRDNSKNTLYLQMNSLRAEDTATYYCARDGSGSYLGFDYWGQGTLVTVSS
VL: DIQMTQSPSSLSASVGDRVTITCRASQSIATYLNWYQQKPGRAPKLLIYAASSLQSGVPSRFVGGGSGSGTHFTLTISSLQPEDFATYYCQQSYSTRETFGQGTKVEIK
Take B18: the “ELISA (T/B)” value was 41.6.

B19: M28-A01 (Fab, V domains shown)
VH: EVQLLESGGGLVQPGGSLRLSCAASGFTFSWYAMHWVRQAPGKGLEWVSGIYSSGGYTKYADSVKGRFTISRDNSKNTLYLQMNSLRAEDTAVYYCARDLSNGDDVFDIWGQGTMVTVSS
VL: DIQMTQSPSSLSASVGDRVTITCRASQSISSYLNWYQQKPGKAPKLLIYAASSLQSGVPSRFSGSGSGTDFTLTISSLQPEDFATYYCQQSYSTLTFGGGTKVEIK
As for B19, the “ELISA (T/B)” value was determined as 19.

B20: M27-B01 (Fab, V domains shown)
VH: EVQLLESGGGLVQPGGSLRLSCAASGFTFSDYTMWWVRQAPGKGLEWVSSISSSGGITFYADSVKGRFTISRDNSKNTLYLQMNSLRAEDTAVYYCARSADTAMGGAFDIWGQGTMVTVSS
VL: not shown
Turning to B20, the “ELISA (T/B)” value is 33.1.

B21: M12-C10 (Fab, V domains shown)
VH: EVQLLESGGGLVQPGGSLRLSCAASGFTFSDYEMHWVRQAPGKGLEWVSGISPSGGKTQYADSVKGRFTISRDNSKNTLYLQMNSLRAEDTAVYYCARDLKWGGRGSPDWYFDLWGRGTLVTVSS
VL: QSALTQPPSVSVSPGQTASITCSGDKLGEKYVSWYQQKPGQSPVVVIYQDNKRPSGIPERFSGSNSGNTATLTISGTQAVDEADYYCQAWDSYTVVFGGGSKLTVLG
On to B21, for which the “ELISA (T/B)” value worked out at 8.3.

B22: M27-E03 (Fab, V domains shown)
VH: EVQLLESGGGLVQPGGSLRLSCAASGFTFSSYMMHWVRQAPGKGLEWVSGIYPSGGWTDYADSVKGRFTISRDNSKNTLYLQMNSLRAEDTATYYCARLVAGLDAFDIWGQGTMVTVSS
VL: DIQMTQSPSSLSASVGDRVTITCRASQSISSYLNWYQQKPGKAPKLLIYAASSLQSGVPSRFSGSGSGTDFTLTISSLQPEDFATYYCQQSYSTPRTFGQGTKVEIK
Take B22: the “ELISA (T/B)” value came to 35.9.

B23: M27-B12 (Fab, V domains shown)
VH: EVQLLESGGGLVQPGGSLRLSCAASGFTFSWYQMMWVRQAPGKGLEWVSSISPSGGITEYADSVKGRFTISRDNSKNTLYLQMNSLRAEDTAVYYCARDRSSGWYYYGMDVWGQGTTVTVSS
VL: QYELTQPPAVSVSPGQTATITCSGDKLGDEYAAWYQQKPGQSPVLVIYQDRKRPSGIPERFSGSNFGNTATLTITGTQVMDEADYYCQAWGKRNVVFGGGTKLTVL
Regarding B23, the “ELISA (T/B)” value was determined as 2.3.
